Test [1] addresses Glycophorin A, native, on intact unmodified human erythrocytes (human (endogenous in erythrocytes)) (UniProt P02724). Description: backscattering interferometry (BSI); free solution, label-free; intact erythrocytes at 0.1% haematocrit in 0.01% BSA-PBS, PfEBA175 dilution series up to 1 μM, 1 h at room temperature; reference: neuraminidase-treated erythrocytes, subtracted; square hyperbolic fit.

Test [2] addresses Basigin, native, on intact unmodified human erythrocytes (human (endogenous in erythrocytes)). Description: backscattering interferometry (BSI); free solution, label-free; intact erythrocytes at 0.1% haematocrit in 0.01% BSA-PBS, PfRH5 dilution series up to 4.5 μM, 1 h at room temperature; reference: erythrocytes pre-incubated with 10 μg/mL anti-BSG antibody MEM-M6/6, subtracted; square hyperbolic fit.

Broadly, the Kd is the free concentration of one partner at which half of the binding sites on the other are occupied at equilibrium, for simple one-to-one binding. High values mean a looser complex, low ones a tighter complex. Take “PfEBA175, entire ectodomain, monomeric Cd4-tagged recombinant protein (ligand)”: the Kd in test [1] stood at 50 nM. As for “PfRH5, entire ectodomain, Cd4-tagged monomer (ligand)”, the Kd in test [2] came out at 1100 nM.

The values above are taken from paper PMC4349660.
